Results reported in PMC12003327.

Columns and labels:
[1] = target: recombinant human integrin alphaV beta3 (αvβ3) (human) (UniProt P06756)
[2] = target: recombinant human integrin alphaV beta3 (αvβ3) (human) (UniProt P06756); remark: listed apart in the source
[3] = target: recombinant human integrin alphaV beta3 (αvβ3) (human) (UniProt P06756); remark: listed apart in the source

recombinant trimeric SARS-CoV-2 Omicron BA.1 spike protein (from UniProt P0DTC2 14-1273) (natural protein)
ERK phosphorylation in HL-mECs after infection with authentic Omicron BA.1 (western blot, against not infected cells) (fold increase) [1]: 3.5
inhibition of Omicron BA.1-induced ERK activation in HL-mECs pretreated with Heparinase III [1]: 56%
inhibition of Omicron BA.1-induced ERK activation in HL-mECs pretreated with mAb anti-αvβ3 [1]: 44%
inhibition of Omicron BA.1-induced ERK phosphorylation in HL-mECs pretreated with sodium chlorate [1]: 53%
inhibition of FAK activation by Omicron BA.1 in HL-mECs pretreated with Heparinase III [2]: 48%
inhibition of FAK activation by Omicron BA.1 in HL-mECs pretreated with mAb anti-αvβ3 [2]: 54%
inhibition of FAK activation by Omicron BA.1 in HL-mECs pretreated with sodium chlorate [2]: 48%
inhibition of pSrc activation by Omicron BA.1 in HL-mECs pretreated with Heparinase III [2]: 66%
inhibition of pSrc activation by Omicron BA.1 in HL-mECs pretreated with mAb anti-αvβ3 [2]: 56%
inhibition of pSrc activation by Omicron BA.1 in HL-mECs pretreated with sodium chlorate [2]: 65%
phosphorylation of FAK in HL-mECs 1 h after infection with authentic Omicron BA.1 (western blot, against not infected cells) (fold increase) [3]: 2.3
phosphorylation of Src in HL-mECs 1 h after infection with authentic Omicron BA.1 (western blot, against not infected cells) (fold increase) [3]: 1.8
